Measured values reported in patent publication US20210063414A1, “METHODS FOR PREVENTING AND/OR TREATING BONE LOSS CONDITIONS BY MODULATING IRISIN” (Dana-Farber Cancer Institute, Inc., priority 2018, published 2021).

Columns and labels:
Assay in all cases: Crosslinking/co-immunoprecipitation/mass spectrometry (TMT quantitative proteomics) to identify irisin receptors
Type in all cases: binding
[1] = molecular target: T1, MLO-Y4 cell surface proteins (Mus musculus, UniProt P60843); conditions: co-precipitated protein Eif4a1 (IF4A1_MOUSE)
T1 construct: endogenous in cells; host or cells: MLO-Y4
Method in brief: (§1)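 Relative protein abundance came from 6-plex TMT MS3 quantitation on an Orbitrap Fusion Lumos, after in-gel trypsin digestion of Coomassie-stained SDS-PAGE lanes. Input was a Ni-NTA pulldown (250 mM imidazole elution) of lysates from murine MLO-Y4 cells. These cells were treated on ice with His-tagged irisin or adipsin (10 nM, 20 min) in serum-free medium, then crosslinked with 1.5 mM DTSSP for 30 min.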

[2] = molecular target: T2, MLO-Y4 cell surface proteins (Mus musculus, UniProt P16675); conditions: co-precipitated protein Ctsa (PPGB_MOUSE)
T2 construct: endogenous in cells; host or cells: MLO-Y4
T2 sequence (P16675 24-474): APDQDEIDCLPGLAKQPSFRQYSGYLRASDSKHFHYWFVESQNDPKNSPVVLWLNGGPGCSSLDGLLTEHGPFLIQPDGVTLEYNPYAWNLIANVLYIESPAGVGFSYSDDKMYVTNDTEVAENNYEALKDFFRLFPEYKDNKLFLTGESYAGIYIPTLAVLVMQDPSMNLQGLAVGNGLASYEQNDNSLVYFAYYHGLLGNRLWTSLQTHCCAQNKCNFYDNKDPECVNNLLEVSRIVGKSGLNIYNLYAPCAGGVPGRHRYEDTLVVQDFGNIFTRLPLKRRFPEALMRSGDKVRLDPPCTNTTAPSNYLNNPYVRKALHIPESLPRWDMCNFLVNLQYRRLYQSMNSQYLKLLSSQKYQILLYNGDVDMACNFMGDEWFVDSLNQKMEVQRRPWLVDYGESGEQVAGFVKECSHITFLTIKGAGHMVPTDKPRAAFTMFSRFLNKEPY
Method in brief: as §1

[3] = molecular target: T3, MLO-Y4 cell surface proteins (Mus musculus, UniProt P97350); conditions: co-precipitated protein Pkp1 (PKP1_MOUSE)
T3 construct: endogenous in cells; host or cells: MLO-Y4
T3 sequence (P97350 1-728): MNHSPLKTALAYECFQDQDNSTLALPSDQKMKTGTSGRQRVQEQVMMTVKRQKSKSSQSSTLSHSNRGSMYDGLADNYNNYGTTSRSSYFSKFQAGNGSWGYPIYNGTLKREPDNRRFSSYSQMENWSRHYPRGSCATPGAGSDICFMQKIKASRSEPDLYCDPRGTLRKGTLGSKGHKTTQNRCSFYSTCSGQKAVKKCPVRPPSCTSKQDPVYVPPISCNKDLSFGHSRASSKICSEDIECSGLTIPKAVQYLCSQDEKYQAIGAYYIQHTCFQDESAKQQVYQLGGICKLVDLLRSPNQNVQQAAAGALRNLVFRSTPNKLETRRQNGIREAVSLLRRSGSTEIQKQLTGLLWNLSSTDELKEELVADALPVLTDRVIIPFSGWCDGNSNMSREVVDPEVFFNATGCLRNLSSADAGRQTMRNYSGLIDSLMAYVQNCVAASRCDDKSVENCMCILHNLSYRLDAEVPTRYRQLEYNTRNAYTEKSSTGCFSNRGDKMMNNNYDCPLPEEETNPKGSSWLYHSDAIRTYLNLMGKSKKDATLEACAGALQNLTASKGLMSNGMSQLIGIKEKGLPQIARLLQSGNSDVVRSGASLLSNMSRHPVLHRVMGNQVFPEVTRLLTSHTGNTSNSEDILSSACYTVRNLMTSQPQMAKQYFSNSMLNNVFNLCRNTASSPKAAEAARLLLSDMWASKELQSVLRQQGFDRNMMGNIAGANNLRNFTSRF
Method in brief: as §1

T1 sequence (P60843 whole entry): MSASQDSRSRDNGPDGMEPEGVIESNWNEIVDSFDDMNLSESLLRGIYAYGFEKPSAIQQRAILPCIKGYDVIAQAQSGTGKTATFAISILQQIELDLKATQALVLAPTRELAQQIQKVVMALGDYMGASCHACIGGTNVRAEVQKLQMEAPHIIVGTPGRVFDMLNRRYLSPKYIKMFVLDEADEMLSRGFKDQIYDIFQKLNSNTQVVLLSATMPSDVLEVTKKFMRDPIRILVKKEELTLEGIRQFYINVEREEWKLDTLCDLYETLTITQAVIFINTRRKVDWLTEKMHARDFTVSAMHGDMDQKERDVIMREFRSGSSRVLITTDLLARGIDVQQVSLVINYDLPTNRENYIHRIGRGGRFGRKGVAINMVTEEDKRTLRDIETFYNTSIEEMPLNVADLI

B1: irisin: secreted cleaved form of FNDC5; recombinant human/mouse irisin with C-terminal his tag produced in HEK293 cells (protein)
chain: DSPSAPVNVTVRHLKANSAVVSWDVLEDEVVIGFAISQQKKDVRMLRFIQEVNTTTRSCALWDLEEDTEYIVHVQAISIQGQSPASEPVLFKTPREAEKMASKNKDEVTMKE
modifications: left off: small tags and cut ends
notes: secreted cleaved form of FNDC5; recombinant human/mouse irisin with C-terminal his tag produced in HEK293 cells
For B1, the TMT signal-to-noise ratio [1] was 17.0483, the “irisin/adipsin TMT signal-to-noise ratio” value [1] was 0.125 and the TMT signal-to-noise ratio [2] was 111.377. The “irisin/adipsin TMT signal-to-noise ratio” value [2] was 0.311, the TMT signal-to-noise ratio [3] was 8.015 and the “irisin/adipsin TMT signal-to-noise ratio” value [3] was 0.082.
